Measured values: IntAct's records for PubMed 19050261

B1: Complement factor H (Homo sapiens), P08603 (parent)
chain: MRLLAKIICLMLWAICVAEDCNELPPRRNTEILTGSWSDQTYPEGTQAIYKCRPGYRSLGNVIMVCRKGEWVALNPLRKCQKRPCGHPGDTPFGTFTLTGGNVFEYGVKAVYTCNEGYQLLGEINYRECDTDGWTNDIPICEVVKCLPVTAPENGKIVSSAMEPDREYHFGQAVRFVCNSGYKIEGDEEMHCSDDGFWSKEKPKCVEISCKSPDVINGSPISQKIIYKENERFQYKCNMGYEYSERGDAVCTESGWRPLPSCEEKSCDNPYIPNGDYSPLRIKHRTGDEITYQCRNGFYPATRGNTAKCTSTGWIPAPRCTLKPCDYPDIKHGGLYHENMRRPYFPVAVGKYYSYYCDEHFETPSGSYWDHIHCTQDGWSPAVPCLRKCYFPYLENGYNQNYGRKFVQGKSIDVACHPGYALPKAQTTVTCMENGWSPTPRCIRVKTCSKSSIDIENGFISESQYTYALKEKAKYQCKLGYVTADGETSGSITCGKDGWSAQPTCIKSCDIPVFMNARTKNDFTWFKLNDTLDYECHDGYESNTGSTTGSIVCGYNGWSDLPICYERECELPKIDVHLVPDRKKDQYKVGEVLKFSCKPGFTIVGPNSVQCYHFGLSPDLPICKEQVQSCGPPPELLNGNVKEKTKEEYGHSEVVEYYCNPRFLMKGPNKIQCVDGEWTTLPVCIVEESTCGDIPELEHGWAQLSSPPYYYGDSVEFNCSESFTMIGHRSITCIHGVWTQLPQCVAIDKLKKCKSSNLIILEEHLKNKKEFDHNSNIRYRCRGKEGWIHTVCINGRWDPEVNCSMAQIQLCPPPPQIPNSHNMTTTLNYRDGEKVSVLCQENYLIQEGEEITCKDGRWQSIPLCVEKIPCSQPPQIEHGTINSSRSSQESYAHGTKLSYTCEGGFRISEENETTCYMGKWSSPPQCEGLPCKSPPEISHGVVAHMSDSYQYGEEVTYKCFEGFGIDGPAIAKCLGEKWSHPPSCIKTDCLSLPSFENAIPMGEKKDVYKAGEQVTYTCATYYKMDGASNVTCINSRWTGRPTCRDTSCVNPPTVQNAYIVSRQMSKYPSGERVRYQCRSPYEMFGDEEVMCLNGNWTEPPQCKDSTGKCGPPPPIDNGDITSFPLSVYAPASSVEYQCQNLYQLEGNKRITCRNGQWSEPPKCLHPCVISREIMENYNIALRWTAKQKLYSRTGESVEFVCKRGYRLSSRSHTLRTTCWDGKLEYPTCAKR

Variants of: B1
Settings: with ptx3_human PTX3, P26022
ptx3_human PTX3, P26022, sequence (P26022 whole entry): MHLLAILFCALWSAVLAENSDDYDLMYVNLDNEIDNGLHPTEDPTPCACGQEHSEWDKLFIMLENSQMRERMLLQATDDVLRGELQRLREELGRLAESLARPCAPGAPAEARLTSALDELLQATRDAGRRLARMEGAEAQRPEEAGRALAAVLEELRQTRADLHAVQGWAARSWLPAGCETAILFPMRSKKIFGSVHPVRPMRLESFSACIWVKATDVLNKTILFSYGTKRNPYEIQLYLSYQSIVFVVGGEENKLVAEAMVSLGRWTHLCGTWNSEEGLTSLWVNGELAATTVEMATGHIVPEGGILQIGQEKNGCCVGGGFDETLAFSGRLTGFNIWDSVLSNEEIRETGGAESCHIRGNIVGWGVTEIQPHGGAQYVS

| Variant | effect of a mutation on the interaction |
| --- | --- |
| Y402H | with no effect |
